Test results reported in US20230257470A1 (published 2023).

T1: human FcγRIIa(R) (human, UniProt P12318 36-217)
T1 construct: also called FcgRIIaR; FcγRIIa type R
T1 chain: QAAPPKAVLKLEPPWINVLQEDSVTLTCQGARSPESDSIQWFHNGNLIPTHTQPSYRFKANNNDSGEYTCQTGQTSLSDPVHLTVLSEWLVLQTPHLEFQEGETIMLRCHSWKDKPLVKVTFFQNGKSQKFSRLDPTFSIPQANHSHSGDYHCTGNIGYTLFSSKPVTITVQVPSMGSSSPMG

T2: human FcγRIIb (human, UniProt P31994 43-217, limits assumed)
T2 construct: also called FcgRIIb; FcγIIB
T2 sequence: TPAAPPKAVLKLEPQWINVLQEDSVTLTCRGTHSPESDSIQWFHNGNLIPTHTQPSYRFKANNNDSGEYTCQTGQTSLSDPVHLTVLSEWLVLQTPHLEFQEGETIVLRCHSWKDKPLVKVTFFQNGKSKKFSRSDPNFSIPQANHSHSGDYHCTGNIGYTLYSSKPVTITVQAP

T3: human FcγRIIa(H) (human, UniProt P12318 36-217)
T3 construct: also called FcgRIIaH; FcγRIIa type H
T3 sequence: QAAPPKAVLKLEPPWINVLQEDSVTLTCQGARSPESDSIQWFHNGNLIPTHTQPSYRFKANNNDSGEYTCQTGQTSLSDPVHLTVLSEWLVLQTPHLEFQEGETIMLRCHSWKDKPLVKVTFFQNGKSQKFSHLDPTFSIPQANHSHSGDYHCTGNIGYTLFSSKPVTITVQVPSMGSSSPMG


Assays:
Assay in all cases: SPR (Biacore), antibody captured, FcγR as analyte; amount bound / that of GpH7-B3/GpL16-k0 x 100;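 note: FcγR binding response divided by the captured antibody amount before comparison, measured at 25 °C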
human FcγRIIa(R) = molecular target: T1, human FcγRIIa(R)
Protocol: (§1) Interaction between each modified antibody and Fcγ receptor prepared in the manner described above was analyzed using the BIACORE™ T100 surface plasmon resonance system (GE Healthcare), BIACORE™ T200 surface plasmon resonance system (GE Healthcare), BIACORE™ A100 surface plasmon resonance system or BIACORE™ 4000 surface plasmon resonance system. HBS-EP+(GE Healthcare) was used for the running buffer, and measurements were carried out at 25° C. The chips used were chips in which antigen peptides, Protein A (Thermo Scientific), Protein A/G (Thermo Scientific) or Protein L (ACTIGEN® protein (Alltech or BioVision) were immobilized on the Series S Sensor Chip CM5 (GE Healthcare) or Series S Sensor Chip CM4 (GE Healthcare) by amine coupling, or chips in which preliminarily biotinylated antigen peptides were allowed to interact and then immobilized on the Series S Sensor Chip SA (certified) (GE Healthcare). The target antibodies were captured on these sensor chips, Fcγ receptor diluted with the running buffer was allowed to interact, followed by measurement of the amount of bound antibody. The amounts bound were compared between antibodies. However, since the amount of Fcγ receptor bound depends on the amount of captured antibody, the values used for comparison were first corrected by dividing the amount of Fcγ receptor bound by the captured amount of each antibody. Through reaction with 10 mM glycine-HCl at pH 1.5, the sensor chips were regenerated by washing off antibody captured on the sensor chips and used repeatedly.
(§2) Binding strength was evaluated according to the following method based on the results of analyzing the interaction with each FcγR. […] That value was then further multiplied by 100, and the resulting value was used as an indicator of relative binding activity to each FcγR.

human FcγRIa = molecular target: T4, human FcγRIa (human, UniProt P12314 16-292, limits assumed)
T4 construct: also called FcgRIa; CD64
Protocol: as §1, §2

human FcγRIIIa(F) = molecular target: T5, human FcγRIIIa(F) (human, UniProt P08637 17-208, limits assumed)
T5 construct: also called FcgRIIIaF; FcγRIIIa allotype F158
Protocol: as §1, §2

human FcγRIIb = molecular target: T2, human FcγRIIb
Protocol: as §1, §2

human FcγRIIa(H) = molecular target: T3, human FcγRIIa(H)
Protocol: as §1, §2

T4 sequence (P12314 16-292 limits assumed): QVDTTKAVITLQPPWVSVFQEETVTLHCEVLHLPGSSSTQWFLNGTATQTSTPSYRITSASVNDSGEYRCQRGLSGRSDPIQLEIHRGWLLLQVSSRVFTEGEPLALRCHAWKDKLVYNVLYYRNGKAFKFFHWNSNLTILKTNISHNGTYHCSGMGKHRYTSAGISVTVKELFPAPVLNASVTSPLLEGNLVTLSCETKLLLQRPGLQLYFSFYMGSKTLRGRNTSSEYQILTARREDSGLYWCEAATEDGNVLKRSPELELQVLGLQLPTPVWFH
T5 sequence (P08637 other isoform, or with tags, fused parts or gaps limits assumed): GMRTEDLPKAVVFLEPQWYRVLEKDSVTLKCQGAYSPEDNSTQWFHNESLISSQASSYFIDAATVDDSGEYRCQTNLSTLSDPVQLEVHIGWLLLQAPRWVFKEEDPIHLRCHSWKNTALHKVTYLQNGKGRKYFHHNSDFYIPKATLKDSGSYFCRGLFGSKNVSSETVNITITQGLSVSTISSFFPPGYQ

relative binding activity (human FcγRIIa(R)) [GpH7-B3/GpL16-k0 = 100] | relative binding activity (human FcγRIa) [GpH7-B3/GpL16-k0 = 100] | relative binding activity (human FcγRIIIa(F)) [GpH7-B3/GpL16-k0 = 100] | relative binding activity (human FcγRIIb) [GpH7-B3/GpL16-k0 = 100] | relative binding activity (human FcγRIIa(H)) [GpH7-B3/GpL16-k0 = 100] | Binder
-3 | 64 | -1 | 1 | 0 | GpH7-B3/GpL16-k0 variant D270P (antibody, human IgG1, also called B3 variant; copies: 2 + 2) heavy: not shown light: DIVMTQSPLSLPVTPGEPASISCQASESLVHSNRNTYLHWYLQKPGQSPQLLIYKVSNRFSGVPDRFSGSGSGTDFTLKISRVEAEDVGVYYCSQNTHVPPTFGQGTKVEIE
1 | 81 |  | 2 | 38 | GpH7-B3/GpL16-k0 variant D270T (antibody, human IgG1, also called B3 variant; copies: 2 + 2) heavy: not shown light: DIVMTQSPLSLPVTPGEPASISCQASESLVHSNRNTYLHWYLQKPGQSPQLLIYKVSNRFSGVPDRFSGSGSGTDFTLKISRVEAEDVGVYYCSQNTHVPPTFGQGTKVEIE
-5 | 45 | 2 | -5 | 11 | GpH7-B3/GpL16-k0 variant D270R (antibody, human IgG1, also called B3 variant; copies: 2 + 2) heavy: not shown light: DIVMTQSPLSLPVTPGEPASISCQASESLVHSNRNTYLHWYLQKPGQSPQLLIYKVSNRFSGVPDRFSGSGSGTDFTLKISRVEAEDVGVYYCSQNTHVPPTFGQGTKVEIE
-1 | 68 | 13 | -2 | 34 | GpH7-B3/GpL16-k0 variant D270N (antibody, human IgG1, also called B3 variant; copies: 2 + 2) heavy: not shown light: DIVMTQSPLSLPVTPGEPASISCQASESLVHSNRNTYLHWYLQKPGQSPQLLIYKVSNRFSGVPDRFSGSGSGTDFTLKISRVEAEDVGVYYCSQNTHVPPTFGQGTKVEIE
19 | 69 | 11 |  | 17 | GpH7-B3/GpL16-k0 variant S298W (antibody, human IgG1, also called B3 variant; copies: 2 + 2) heavy: not shown light: DIVMTQSPLSLPVTPGEPASISCQASESLVHSNRNTYLHWYLQKPGQSPQLLIYKVSNRFSGVPDRFSGSGSGTDFTLKISRVEAEDVGVYYCSQNTHVPPTFGQGTKVEIE
-2 | 78 |  | -2 | 53 | GpH7-B3/GpL16-k0 variant D270Y (antibody, human IgG1, also called B3 variant; copies: 2 + 2) heavy: not shown light: DIVMTQSPLSLPVTPGEPASISCQASESLVHSNRNTYLHWYLQKPGQSPQLLIYKVSNRFSGVPDRFSGSGSGTDFTLKISRVEAEDVGVYYCSQNTHVPPTFGQGTKVEIE
7 | 90 | 29 | 6 | 57 | GpH7-B3/GpL16-k0 variant D270M (antibody, human IgG1, also called B3 variant; copies: 2 + 2) heavy: not shown light: DIVMTQSPLSLPVTPGEPASISCQASESLVHSNRNTYLHWYLQKPGQSPQLLIYKVSNRFSGVPDRFSGSGSGTDFTLKISRVEAEDVGVYYCSQNTHVPPTFGQGTKVEIE
3 | 88 | 23 | 1 | 43 | GpH7-B3/GpL16-k0 variant D270I (antibody, human IgG1, also called B3 variant; copies: 2 + 2) heavy: not shown light: DIVMTQSPLSLPVTPGEPASISCQASESLVHSNRNTYLHWYLQKPGQSPQLLIYKVSNRFSGVPDRFSGSGSGTDFTLKISRVEAEDVGVYYCSQNTHVPPTFGQGTKVEIE
0 | 70 | 11 | -2 | 53 | GpH7-B3/GpL16-k0 variant D270H (antibody, human IgG1, also called B3 variant; copies: 2 + 2) heavy: not shown light: DIVMTQSPLSLPVTPGEPASISCQASESLVHSNRNTYLHWYLQKPGQSPQLLIYKVSNRFSGVPDRFSGSGSGTDFTLKISRVEAEDVGVYYCSQNTHVPPTFGQGTKVEIE
6 | 90 | 33 | 3 | 61 | GpH7-B3/GpL16-k0 variant D270L (antibody, human IgG1, also called B3 variant; copies: 2 + 2) heavy: not shown light: DIVMTQSPLSLPVTPGEPASISCQASESLVHSNRNTYLHWYLQKPGQSPQLLIYKVSNRFSGVPDRFSGSGSGTDFTLKISRVEAEDVGVYYCSQNTHVPPTFGQGTKVEIE
